Target: Z-domain (an engineered analogue of the IgG-binding domain of protein A)
Experiment: isothermal titration calorimetry, Z-domain injected into IgG

Q: For mmIgG2b-P307T-Q309L-K409R (antibody), which fold tighter binding than mmIgG2b-F405L is on record?
A: The fold tighter binding than mmIgG2b-F405L was 5 fold.
